Source: patent publication US20110271397, “MOLECULAR CLOCK MECHANISM OF HYBRID VIGOR” (published 2011)

B1: TOC1 promoter EE oligo (dsDNA)
DNA 1: ACACAAAAAAAATATCTAATCACAG
DNA 2: CTGTGATTAGATATTTTTTTTGTGT
B2: PORB promoter EE oligo (dsDNA)
DNA 1: ATTAAAATAAAATATCTAAGGAGAA
DNA 2: TTCTCCTTAGATATTTTATTTTAAT
B3: PORA promoter EE oligo (dsDNA)
DNA 1: TATACATTAAAATATCTACTGACAG
DNA 2: CTGTCAGTAGATATTTTAATGTATA
B4: DPE1 promoter EE oligo (dsDNA)
DNA 1: AGAGCAACAAAATATCTCGACTGTT
DNA 2: AACAGTCGAGATATTTTGTTGCTCT
B5: GWD3 promoter EE oligo (dsDNA)
DNA 1: CACAAACAAAAAAATCTCTTATCAC
DNA 2: GTGATAAGAGATTTTTTTGTTTGTG

Columns and labels:
[1] = target: T1, CCA1 (Arabidopsis thaliana, UniProt P92973 P92973:1-608); assay: EMSA; 10 fmol rCCA1 and 10 fmol probe; cold competitor 5-50x; conditions: tags: full-length cDNA in pET300/NT-DEST, E. coli Rosetta-gami B; label: 32P
T1 sequence (P92973 whole entry, one chain of several): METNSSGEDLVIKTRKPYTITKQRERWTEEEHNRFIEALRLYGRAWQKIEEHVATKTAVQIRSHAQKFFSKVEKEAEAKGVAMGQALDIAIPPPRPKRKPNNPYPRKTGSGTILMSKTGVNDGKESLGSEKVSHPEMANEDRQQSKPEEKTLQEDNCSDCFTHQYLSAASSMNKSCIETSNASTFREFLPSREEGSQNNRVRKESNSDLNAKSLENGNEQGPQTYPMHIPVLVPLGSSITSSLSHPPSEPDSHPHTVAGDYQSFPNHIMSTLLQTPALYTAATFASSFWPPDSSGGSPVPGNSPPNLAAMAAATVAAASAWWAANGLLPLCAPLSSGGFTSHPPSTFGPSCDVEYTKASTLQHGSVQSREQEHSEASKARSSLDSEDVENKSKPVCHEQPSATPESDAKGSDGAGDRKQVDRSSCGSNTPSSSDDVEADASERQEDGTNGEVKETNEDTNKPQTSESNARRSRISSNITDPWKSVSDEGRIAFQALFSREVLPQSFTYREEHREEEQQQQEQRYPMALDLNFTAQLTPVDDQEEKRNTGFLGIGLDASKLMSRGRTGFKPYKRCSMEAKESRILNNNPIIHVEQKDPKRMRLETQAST
From the text: (§1) The cDNA was cloned into pDONR221 and validated by sequencing. The resulting insert was transferred by recombination into pET300/NT-DEST expression vector (Invitrogen Corp., Carlsbad, Calif.) and expressed in Escherichia coli Rosetta-gami B competent cells (Novagen, Madison, Wis.). Recombinant CCA1 protein was purified and subjected to EMSA in 6% native polyacrylamide gels using rCCA1 (10 fmoles) and ³²P-labeled double-stranded oligonucleotides (10 fmoles, Table 5). The cold probe (Cp) concentrations were 0 (-), 50 (5×), 100 (10×), 200 (20×), and 500 (50×) fmoles, respectively, according to a published protocol available at http://www.natureprotocols.com/2009/01/08/the_electrophoretic_mobility_s_{—}1.php.

[2] = target: T1, CCA1; assay: EMSA; 10 fmol rCCA1 and 10 fmol probe; cold competitor 5-50x; text prints PORE for PORB; conditions: tags: full-length cDNA in pET300/NT-DEST, E. coli Rosetta-gami B; label: 32P
From the text: as §1

Row | Binder | binding result [1] | binding result [2]
1 | B1 | binds | –
2 | B2 | – | binds
3 | B3 | binds | –
4 | B4 | binds | –
5 | B5 | binds | –
